According to patent publication US20260055205A1 (published 2026):
Substitutions are numbered along the chain they refer to.

Assays:
human PSMA-Fc [1] = target: T1, human PSMA-Fc (human, UniProt Q04609 44-750); test: Octet
T1 construct: also called Human PSMA-Fc fusion

human PSMA-Fc [2] = target: T1, human PSMA-Fc; test: Octet, PSMA-Fc
Method: Binding affinity of select PSMA PTE variants was tested by Octet.

human PSMA [3] = target: T2, human PSMA (human, UniProt Q04609 44-750, limits assumed); test: binding screen
T2 construct: also called huPSMA; hPSMA
T2 sequence (Q04609 44-750 limits assumed): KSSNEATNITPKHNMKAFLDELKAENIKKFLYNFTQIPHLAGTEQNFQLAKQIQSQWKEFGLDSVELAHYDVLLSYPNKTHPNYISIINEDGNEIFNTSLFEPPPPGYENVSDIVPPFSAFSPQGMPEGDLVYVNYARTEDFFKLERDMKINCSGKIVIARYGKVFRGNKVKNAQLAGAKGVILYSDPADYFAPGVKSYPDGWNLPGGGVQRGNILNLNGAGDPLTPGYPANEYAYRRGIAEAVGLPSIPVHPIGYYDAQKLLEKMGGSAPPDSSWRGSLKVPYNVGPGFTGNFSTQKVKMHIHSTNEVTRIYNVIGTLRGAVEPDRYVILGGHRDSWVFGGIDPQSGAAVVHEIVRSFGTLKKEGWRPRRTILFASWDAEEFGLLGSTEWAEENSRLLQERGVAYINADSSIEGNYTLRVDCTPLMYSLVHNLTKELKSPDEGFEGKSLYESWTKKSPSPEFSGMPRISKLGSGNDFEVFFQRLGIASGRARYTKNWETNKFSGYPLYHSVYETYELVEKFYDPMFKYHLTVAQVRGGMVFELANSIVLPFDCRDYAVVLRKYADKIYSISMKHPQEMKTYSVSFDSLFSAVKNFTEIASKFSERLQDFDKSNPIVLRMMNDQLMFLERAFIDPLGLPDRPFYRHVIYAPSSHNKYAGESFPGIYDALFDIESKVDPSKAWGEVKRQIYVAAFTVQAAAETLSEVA

huCD3e-Fc = huCD3e-Fc (human, UniProt P07766 23-126); test: Octet, purified
huCD3e-Fc, sequence (P07766 23-126): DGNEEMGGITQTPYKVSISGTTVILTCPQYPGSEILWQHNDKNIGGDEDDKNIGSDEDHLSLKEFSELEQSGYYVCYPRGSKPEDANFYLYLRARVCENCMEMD
Method: (§1) Pool 2 consisted of paTCE molecules each containing PSMA.262 and one of 64 CD3.23 mutation combination variants. Stability and affinity of the individually expressed molecules in the form of crude lysate was evaluated by Octet. […] The binding of these anti-CD3 molecules (CD3.227, CD3.228, CD3.229 and CD3.230) to human and cynomolgus CD3 was measured by Octet and the Tm was measured by Differential Scanning Fluorimetry. All variants were paired with PSMA.262 except for CD3.23 which was paired with PSMA.5.

cyCD3e-Fc = target: T3, cyCD3e-Fc (cynomolgus monkey, UniProt Q95LI5 22-117); test: Octet, purified
T3 sequence (looked up): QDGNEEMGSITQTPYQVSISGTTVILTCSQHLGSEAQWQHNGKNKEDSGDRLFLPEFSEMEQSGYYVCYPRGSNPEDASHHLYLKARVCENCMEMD
Method: as §1

human CD3 epsilon = target: T4, human CD3 epsilon (human, UniProt P07766 23-126, limits assumed); test: Octet, crude lysate
T4 construct: also called huCD3e
T4 sequence (P07766 23-126 limits assumed): as the sequence (P07766 23-126) above
Summary of the method: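 Octet binding of the anti-CD3 paTCE molecules was measured to cynomolgus CD3e-Fc with purified material and to human CD3 epsilon with crude lysate. Every variant carried PSMA.262 except CD3.23, which carried PSMA.5.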

human PSMA [4] = target: T2, human PSMA; test: binding kinetics, uTCE

T1 sequence (Q04609 44-750 limits assumed): as the sequence (Q04609 44-750 limits assumed) above

B1: PSMA.6 (uTCE of AC2728) (bispecific antibody, V domains shown)
VH: EVQLVESGGGVVQPGRSLRLSCAASGRTFGIYVMGWVRQAPGKEREFVAAISWSGSNRLVSDSVKGRFTISRDNSKNTLYLQMNSLRAEDTAVYFCAASNRLYGRTWYDFNESDYWGQGTTVTVSS
notes: TCE with CD3.23; also called VHH14
Kd (human PSMA-Fc [1]): 2.3 nM | koff (human PSMA-Fc [1]): 0.00024 s⁻¹ | kon (human PSMA-Fc [1]): 96000 M⁻¹ s⁻¹ | Kd (human PSMA-Fc [2]): 2.3 nM | koff (human PSMA-Fc [2]): 0.000235 s⁻¹ | kon (human PSMA-Fc [2]): 96300 M⁻¹ s⁻¹

B2: AC2717 (PSMA.5 with CD3.23) (bispecific antibody, V domains shown)
VHH: B1 VH with E1Q, F95Y, T121Q
VL: ELVVTQEPSLTVSPGGTVTLTCRSSNGAVTSSNYANWVQQKPGQAPRGLIGGTNKRAPGTPARFSGSLLGGKAALTLSGVQPEDEAVYYCALWYPNLWVFGGGTKLTVL
VH: EVQLLESGGGIVQPGGSLKLSCAASGFTFNTYAMNWVRQAPGKGLEWVARIRSKYNNYATYYADSVKDRFTISRDDSKNTVYLQMNNLKTEDTAVYYCVRHENFGNSYVSWFAHWGQGTLVTVSS
notes: Domains of one TCE chain; also called VHH3
Kd (human PSMA [3]): 4.8 nM | Kd (huCD3e-Fc): 131 nM | koff (huCD3e-Fc): 0.0289 s⁻¹ | kon (huCD3e-Fc): 220000 M⁻¹ s⁻¹ | Kd (cyCD3e-Fc): 130 nM | koff (cyCD3e-Fc): 0.0312 s⁻¹ | kon (cyCD3e-Fc): 240000 M⁻¹ s⁻¹ | Kd (human CD3 epsilon): 12.9 nM

B3: PSMA.285 (bispecific antibody, V domains shown)
VH: B1 VH with E1Q, M34F, A49G, L59K, F95Y, T121Q
notes: TCE with CD3.23; also called AC3494
Kd (human PSMA [3]): 3.1 nM

B4: PSMA.290 (bispecific antibody, V domains shown)
VH: B1 VH with E1Q, M34W, I51M, L59K, F95Y, T121Q
notes: TCE with CD3.23; also called AC3499
Kd (human PSMA [3]): 5.5 nM

B5: PSMA.278 (bispecific antibody, V domains shown)
VH: B1 VH with E1Q, M34W, A49G, L59K, F95Y, L102M, T121Q
notes: TCE with CD3.23; also called AC3487
Kd (human PSMA [3]): 3.9 nM

B6: PSMA.269 (bispecific antibody, V domains shown)
VH: B1 VH with E1Q, M34F, A49G, L59K, F95Y, L102T, T121Q
notes: TCE with CD3.23; also called AC3478
Kd (human PSMA [3]): 5.5 nM

B7: PSMA.272 (bispecific antibody, V domains shown)
VH: B1 VH with E1Q, V33A, I51M, L59K, F95Y, L102T, T121Q
notes: TCE with CD3.23; also called AC3481
Kd (human PSMA [3]): 504 nM

B8: PSMA.275 (bispecific antibody, V domains shown)
VH: B1 VH with E1Q, V37F, I51M, L59K, F95Y, L102T, T121Q
notes: TCE with CD3.23; also called AC3484
Kd (human PSMA [3]): 20.5 nM

B9: PSMA.287 (bispecific antibody, V domains shown)
VH: B1 VH with E1Q, V37F, A49G, L59K, F95Y, T121Q
notes: TCE with CD3.23; also called AC3496
Kd (human PSMA [3]): 2.3 nM

B10: PSMA.283 (bispecific antibody, V domains shown)
VH: B1 VH with E1Q, V37F, I51M, L59K, F95Y, L102M, T121Q
notes: TCE with CD3.23; also called AC3492
Kd (human PSMA [3]): 3.5 nM

B11: PSMA.282 (bispecific antibody, V domains shown)
VH: B1 VH with E1Q, M34W, I51M, L59K, F95Y, L102M, T121Q
notes: TCE with CD3.23; also called AC3491
Kd (human PSMA [3]): 8.7 nM

B12: AC3471 (PSMA.262 with CD3.23) (bispecific antibody, V domains shown)
VHH: B1 VH with E1Q, M34W, A49G, L59K, F95Y, R101K, T121Q
VL: B2 VL
VH: B2 VH
notes: Domains of one TCE chain; also called CD3.23 WT
Kd (human PSMA [3]): 2.7 nM | Kd (human CD3 epsilon): 13.5 nM

B13: PSMA.276 (bispecific antibody, V domains shown)
VH: B1 VH with E1Q, V33A, A49G, L59K, F95Y, L102M, T121Q
notes: TCE with CD3.23; also called AC3485
Kd (human PSMA [3]): 10.5 nM

B14: PSMA.284 (bispecific antibody, V domains shown)
VH: B1 VH with E1Q, V33A, A49G, L59K, F95Y, T121Q
notes: TCE with CD3.23; also called AC3493
Kd (human PSMA [3]): 4.1 nM

B15: PSMA.273 (bispecific antibody, V domains shown)
VH: B1 VH with E1Q, M34F, I51M, L59K, F95Y, L102T, T121Q
notes: TCE with CD3.23; also called AC3482
Kd (human PSMA [3]): 16.6 nM

B16: PSMA.270 (bispecific antibody, V domains shown)
VH: B1 VH with E1Q, M34W, A49G, L59K, F95Y, L102T, T121Q
notes: TCE with CD3.23; also called AC3479
Kd (human PSMA [3]): 6.5 nM

B17: PSMA.271 (bispecific antibody, V domains shown)
VH: B1 VH with E1Q, V37F, A49G, L59K, F95Y, L102T, T121Q
notes: TCE with CD3.23; also called AC3480
Kd (human PSMA [3]): 9.1 nM

B18: PSMA.288 (bispecific antibody, V domains shown)
VH: B1 VH with E1Q, V33A, I51M, L59K, F95Y, T121Q
notes: TCE with CD3.23; also called AC3497
Kd (human PSMA [3]): 6 nM

B19: PSMA.291 (bispecific antibody, V domains shown)
VH: B1 VH with E1Q, V37F, I51M, L59K, F95Y, T121Q
notes: TCE with CD3.23; also called AC3500
Kd (human PSMA [3]): 2.6 nM

B20: PSMA.274 (bispecific antibody, V domains shown)
VH: B1 VH with E1Q, M34W, I51M, L59K, F95Y, L102T, T121Q
notes: TCE with CD3.23; also called AC3483
Kd (human PSMA [3]): 39.6 nM

B21: PSMA.277 (bispecific antibody, V domains shown)
VH: B1 VH with E1Q, M34F, A49G, L59K, F95Y, L102M, T121Q
notes: TCE with CD3.23; also called AC3486
Kd (human PSMA [3]): 3.1 nM

B22: PSMA.281 (bispecific antibody, V domains shown)
VH: B1 VH with E1Q, M34F, I51M, L59K, F95Y, L102M, T121Q
notes: TCE with CD3.23; also called AC3490
Kd (human PSMA [3]): 5.3 nM

B23: PSMA.286 (bispecific antibody, V domains shown)
VH: B1 VH with E1Q, M34W, A49G, L59K, F95Y, T121Q
notes: TCE with CD3.23; also called AC3495
binding result (human PSMA [3]): no binding

B24: PSMA.289 (bispecific antibody, V domains shown)
VH: B1 VH with E1Q, M34F, I51M, L59K, F95Y, T121Q
notes: TCE with CD3.23; also called AC3498
Kd (human PSMA [3]): 6.2 nM

B25: PSMA.279 (bispecific antibody, V domains shown)
VH: B1 VH with E1Q, V37F, A49G, L59K, F95Y, L102M, T121Q
notes: TCE with CD3.23; also called AC3488
Kd (human PSMA [3]): 2.3 nM

B26: PSMA.280 (bispecific antibody, V domains shown)
VH: B1 VH with E1Q, V33A, I51M, L59K, F95Y, L102M, T121Q
notes: TCE with CD3.23; also called AC3489
Kd (human PSMA [3]): 16.3 nM

B27: uTCE PSMA-VHH; CB01B02R3, CD3.23 (bispecific antibody)
chain: LTGPATSGSETPGTQVQLVESGGGLVQAGDSLRLSCVTSGRTFDVYAMGWFRQAPGKERELVAAINWSGSNKFHADSVKGRFTISRDNAWKTLSLQMNSLKPEDTAVYFCAASTRLYGTTWYEFNDSDYWGQGTQVTVSSGGGGSGGGSELVVTQEPSLTVSPGGTVTLTCRSSNGAVTSSNYANWVQQKPGQAPRGLIGGTNKRAPGTPARFSGSLLGGKAALTLSGVQPEDEAVYYCALWYPNLWVFGGGTKLTVLGATPPETGAETESPGETTGGSAESEPPGEGEVQLLESGGGIVQPGGSLKLSCAASGFTFNTYAMNWVRQAPGKGLEWVARIRSKYNNYATYYADSVKDRFTISRDDSKNTVYLQMNNLKTEDTAVYYCVRHENFGNSYVSWFAHWGQGTLVTVSSGTAEAASASGEAGRSANHTPAG
notes: also called PSMA.3
Kd (human PSMA [4]): 1.15 nM | koff (human PSMA [4]): 0.000205 s⁻¹ | kon (human PSMA [4]): 178000 M⁻¹ s⁻¹

B28: CD3.227 (bispecific antibody, V domains shown)
VH: B2 VH with L5V, K19R, A49G, S53T, Y55R, D68G, N87S
VL: B2 VL
notes: paTCE with PSMA.262; also called AC3658
Kd (huCD3e-Fc): 57 nM | koff (huCD3e-Fc): 0.0196 s⁻¹ | kon (huCD3e-Fc): 342000 M⁻¹ s⁻¹ | Kd (cyCD3e-Fc): 80 nM | koff (cyCD3e-Fc): 0.0253 s⁻¹ | kon (cyCD3e-Fc): 315000 M⁻¹ s⁻¹ | Kd (human CD3 epsilon): 8.2 nM

B29: CD3.230 (bispecific antibody, V domains shown)
VH: B2 VH with L5V, K19R, N30S, A49G, S53T, Y55T, D68G, N87S
VL: B2 VL
notes: paTCE with PSMA.262; also called AC3661
Kd (huCD3e-Fc): 195 nM | koff (huCD3e-Fc): 0.0633 s⁻¹ | kon (huCD3e-Fc): 325000 M⁻¹ s⁻¹ | Kd (cyCD3e-Fc): 216 nM | koff (cyCD3e-Fc): 0.0726 s⁻¹ | kon (cyCD3e-Fc): 336000 M⁻¹ s⁻¹ | Kd (human CD3 epsilon): 17 nM

B30: CD3.228 (bispecific antibody, V domains shown)
VH: B2 VH with L5V, K19R, N30S, A49G, S53T, Y55R, D68G, N87S
VL: B2 VL
notes: paTCE with PSMA.262; also called AC3659
Kd (huCD3e-Fc): 69 nM | koff (huCD3e-Fc): 0.0217 s⁻¹ | kon (huCD3e-Fc): 317000 M⁻¹ s⁻¹ | Kd (cyCD3e-Fc): 80 nM | koff (cyCD3e-Fc): 0.0266 s⁻¹ | kon (cyCD3e-Fc): 334000 M⁻¹ s⁻¹ | Kd (human CD3 epsilon): 6.2 nM

B31: CD3.229 (bispecific antibody, V domains shown)
VH: B2 VH with L5V, K19R, A49G, S53T, Y55T, D68G, N87S
VL: B2 VL
notes: paTCE with PSMA.262; also called AC3660
Kd (huCD3e-Fc): 162 nM | koff (huCD3e-Fc): 0.052 s⁻¹ | kon (huCD3e-Fc): 321000 M⁻¹ s⁻¹ | Kd (cyCD3e-Fc): 193 nM | koff (cyCD3e-Fc): 0.0611 s⁻¹ | kon (cyCD3e-Fc): 317000 M⁻¹ s⁻¹ | Kd (human CD3 epsilon): 11.9 nM
